Legend:
HHH peptide [1] = target: T1, HHH peptide (synthetic); test: plate binding assay (ELONA); EC50, Streptavidin AlexaFluor 647; 10 mM HEPES, 1.2 mM NaCl (so in the source), 5 mM MgCl2, 5 mM KCl, pH 7.4, 0.1% Tween-20, 1% sheared salmon sperm DNA, 300 uM dextran sulfate; 60 min; temperature not stated; conditions: tags: N-terminal Cys-biotin-PEG2; label: streptavidin conjugates or HRP
T1 chain: GHHHG

HHH peptide [2] = target: T1, HHH peptide; test: plate binding assay (ELONA); EC50, Streptavidin APC; 10 mM HEPES, 1.2 mM NaCl (so in the source), 5 mM MgCl2, 5 mM KCl, pH 7.4, 0.1% Tween-20, 1% sheared salmon sperm DNA, 300 uM dextran sulfate; 60 min; temperature not stated; conditions: tags: N-terminal Cys-biotin-PEG2; label: streptavidin conjugates or HRP
HHH peptide [3] = target: T1, HHH peptide; test: plate binding assay (ELONA); EC50, Streptavidin SureLight APC; 10 mM HEPES, 1.2 mM NaCl (so in the source), 5 mM MgCl2, 5 mM KCl, pH 7.4, 0.1% Tween-20, 1% sheared salmon sperm DNA, 300 uM dextran sulfate; 60 min; temperature not stated; conditions: tags: N-terminal Cys-biotin-PEG2; label: streptavidin conjugates or HRP
HHH peptide [4] = target: T1, HHH peptide; test: plate binding assay (ELONA); streptavidin conjugate; Fig. S4B legend calls it EC50; 10 mM HEPES, 1.2 mM NaCl (so in the source), 5 mM MgCl2, 5 mM KCl, pH 7.4, 0.1% Tween-20, 1% sheared salmon sperm DNA, 300 uM dextran sulfate; 60 min; temperature not stated; conditions: tags: N-terminal Cys-biotin-PEG2; label: streptavidin conjugates or HRP
HHH peptide [5] = target: T1, HHH peptide; test: plate binding assay (ELONA); 10 mM HEPES, 1.2 mM NaCl (so in the source), 5 mM MgCl2, 5 mM KCl, pH 7.4, 0.1% Tween-20, 1% sheared salmon sperm DNA, 300 uM dextran sulfate; 60 min; temperature not stated; conditions: tags: N-terminal Cys-biotin-PEG2; label: fluorescent FluoSphere; 24 bp duplex of strand 1 5' end with handle; rest single-stranded aptamer
Her2-his [6] = target: T2, Her2-his (UniProt P04626 23-652); test: plate binding assay (ELONA); EC50, FluoSphere probe, avidity; 10 mM HEPES, 1.2 mM NaCl (so in the source), 5 mM MgCl2, 5 mM KCl, pH 7.4, 0.1% Tween-20, 1% sheared salmon sperm DNA, 300 uM dextran sulfate; 60 min; temperature not stated; conditions: protein: commercial; tags: His tag; label: fluorescent FluoSphere; 24 bp duplex of strand 1 5' end with handle; rest single-stranded aptamer
HHH peptide [7] = target: T1, HHH peptide; test: plate binding assay (ELONA); EC50, FluoSphere probe; 10 mM HEPES, 1.2 mM NaCl (so in the source), 5 mM MgCl2, 5 mM KCl, pH 7.4, 0.1% Tween-20, 1% sheared salmon sperm DNA, 300 uM dextran sulfate; 60 min; temperature not stated; conditions: tags: N-terminal Cys-biotin-PEG2; label: fluorescent FluoSphere; 24 bp duplex of strand 1 5' end with handle; rest single-stranded aptamer
Her2-his [8] = target: T2, Her2-his; test: plate binding assay (ELONA); EC50, Qdot core; 10 mM HEPES, 1.2 mM NaCl (so in the source), 5 mM MgCl2, 5 mM KCl, pH 7.4, 0.1% Tween-20, 1% sheared salmon sperm DNA, 300 uM dextran sulfate; 60 min; temperature not stated; conditions: protein: commercial; tags: His tag; label: Qdot 655; 24 bp duplex of strand 1 5' end with handle; rest single-stranded aptamer
Her2-his [9] = target: T2, Her2-his; test: plate binding assay (ELONA); about twofold lower than pre-annealed probe; 10 mM HEPES, 1.2 mM NaCl (so in the source), 5 mM MgCl2, 5 mM KCl, pH 7.4, 0.1% Tween-20, 1% sheared salmon sperm DNA, 300 uM dextran sulfate; 60 min; temperature not stated; conditions: protein: commercial; tags: His tag; label: fluorescent FluoSphere
HHH peptide [10] = target: T1, HHH peptide; test: plate binding assay (ELONA); EC50, streptavidin conjugate; 10 mM HEPES, 1.2 mM NaCl (so in the source), 5 mM MgCl2, 5 mM KCl, pH 7.4, 0.1% Tween-20, 1% sheared salmon sperm DNA, 300 uM dextran sulfate; 60 min; temperature not stated; conditions: tags: N-terminal Cys-biotin-PEG2; label: streptavidin conjugate
VEGF = VEGF (UniProt P15692-4 27-191); test: plate binding assay (ELONA); EC50, FluoSphere probe; 10 mM HEPES, 1.2 mM NaCl (so in the source), 5 mM MgCl2, 5 mM KCl, pH 7.4, 0.1% Tween-20, 1% sheared salmon sperm DNA, 300 uM dextran sulfate; 60 min; temperature not stated; conditions: protein: commercial; chain copies: 2; label: fluorescent FluoSphere; 24 bp duplex of strand 1 5' end with handle; rest single-stranded aptamer
Myoglobin = Myoglobin (UniProt P68082 2-154); test: plate binding assay (ELONA); off-target; 10 mM HEPES, 1.2 mM NaCl (so in the source), 5 mM MgCl2, 5 mM KCl, pH 7.4, 0.1% Tween-20, 1% sheared salmon sperm DNA, 300 uM dextran sulfate; 60 min; temperature not stated; conditions: protein: commercial; label: fluorescent FluoSphere; 24 bp duplex of strand 1 5' end with handle; rest single-stranded aptamer

B1: Biotin-B1 (ssDNA)
DNA: CATGCTTCCCCAGGGAGATGGTTTGCCGGTGGGCAGGTTTAGGGTCTGCTCGGGATTGCGGAGGAACATGCGTCGCAAAC
modifications: 5' biotin
HHH peptide [1]
  apparent K (half saturation): 43 nM
HHH peptide [2]
  apparent K (half saturation): 28 nM
HHH peptide [3]
  apparent K (half saturation): 9.9 nM
HHH peptide [4]
  Kd: 55 nM

B2: Her2 aptamer annealed to DBCO-P7 handle on nanoparticle (mixed)
DNA 1: CAAGCAGAAGACGGCATACGAGATTCTAAAAGGATTCTTCCCAAGGGGATCCAATTCAAACAGCGTGTAGATCTCGGTGGTCGCCGTATCATT
DNA 2: ATCTCGTATGCCGTCTTCTGCTTG
modifications: handle 3' iSp9-DBCO coupled to azide-PEG
HHH peptide [5]
  binding result: no binding

B3: P7-B1 annealed to DBCO-P7 handle on nanoparticle (mixed)
DNA 1: CAAGCAGAAGACGGCATACGAGATCATGCTTCCCCAGGGAGATGGTTTGCCGGTGGGCAGGTTTAGGGTCTGCTCGGGATTGCGGAGGAACATGCGTCGCAAACGTGTAGATCTCGGTGGTCGCCGTATCATT
DNA 2: ATCTCGTATGCCGTCTTCTGCTTG
modifications: handle 3' iSp9-DBCO coupled to azide-PEG
Her2-his [6]
  apparent K (half saturation): 5.2 nM
HHH peptide [7]
  apparent K (half saturation): 2.7 nM

B4: P7-B1 annealed to DBCO-P7 handle on Qdot 655 (mixed)
DNA 1: CAAGCAGAAGACGGCATACGAGATCATGCTTCCCCAGGGAGATGGTTTGCCGGTGGGCAGGTTTAGGGTCTGCTCGGGATTGCGGAGGAACATGCGTCGCAAACGTGTAGATCTCGGTGGTCGCCGTATCATT
DNA 2: ATCTCGTATGCCGTCTTCTGCTTG
modifications: handle 3' iSp9-DBCO coupled to azide-PEG
Her2-his [8]
  apparent K (half saturation): 55 nM

B5: DBCO-B1 directly conjugated to nanoparticle (ssDNA)
DNA: CAAGCAGAAGACGGCATACGAGATCATGCTTCCCCAGGGAGATGGTTTGCCGGTGGGCAGGTTTAGGGTCTGCTCGGGATTGCGGAGGAACATGCGTCGCAAACGTGTAGATCTCGGTGGTCGCCGTATCATT
modifications: 5' DBCO-C7 coupled to azide-PEG
Her2-his [9]
  binding result: binds

B6: H3T annealed to DBCO-P7 handle on nanoparticle (mixed)
DNA 1: CAAGCAGAAGACGGCATACGAGATGTTTGCCGGTGGGCAGGTTTAGGGTCTGCTCGGGATTGCGGAGGAACATGCGTCGCAAACGTGTAGATCTCGGTGGTCGCCGTATCATT
DNA 2: ATCTCGTATGCCGTCTTCTGCTTG
modifications: handle 3' iSp9-DBCO coupled to azide-PEG
HHH peptide [7]
  apparent K (half saturation): 12 nM

B7: Biotin-H3T (ssDNA)
DNA: GTTTGCCGGTGGGCAGGTTTAGGGTCTGCTCGGGATTGCGGAGGAACATGCGTCGCAAAC
modifications: 5' biotin
HHH peptide [10]
  apparent K (half saturation): 30 nM

B8: VEGF aptamer annealed to DBCO-P7 handle on nanoparticle (mixed)
DNA 1: CAAGCAGAAGACGGCATACGAGATCCCGTCTTCCAGACAAGAGTGCAGGGGTGTAGATCTCGGTGGTCGCCGTATCATT
DNA 2: ATCTCGTATGCCGTCTTCTGCTTG
modifications: handle 3' iSp9-DBCO coupled to azide-PEG
VEGF
  apparent K (half saturation): 5.5 nM
Myoglobin
  binding result: no binding

— publication PMC8497506, “Modular fluorescent nanoparticle DNA probes for detection of peptides and proteins”
